This assay deals with T1, ApoER2 (Homo sapiens, UniProt Q14114).
T1 construct: purchased R&D 3520‐AR
T1 sequence (Q14114 33-963): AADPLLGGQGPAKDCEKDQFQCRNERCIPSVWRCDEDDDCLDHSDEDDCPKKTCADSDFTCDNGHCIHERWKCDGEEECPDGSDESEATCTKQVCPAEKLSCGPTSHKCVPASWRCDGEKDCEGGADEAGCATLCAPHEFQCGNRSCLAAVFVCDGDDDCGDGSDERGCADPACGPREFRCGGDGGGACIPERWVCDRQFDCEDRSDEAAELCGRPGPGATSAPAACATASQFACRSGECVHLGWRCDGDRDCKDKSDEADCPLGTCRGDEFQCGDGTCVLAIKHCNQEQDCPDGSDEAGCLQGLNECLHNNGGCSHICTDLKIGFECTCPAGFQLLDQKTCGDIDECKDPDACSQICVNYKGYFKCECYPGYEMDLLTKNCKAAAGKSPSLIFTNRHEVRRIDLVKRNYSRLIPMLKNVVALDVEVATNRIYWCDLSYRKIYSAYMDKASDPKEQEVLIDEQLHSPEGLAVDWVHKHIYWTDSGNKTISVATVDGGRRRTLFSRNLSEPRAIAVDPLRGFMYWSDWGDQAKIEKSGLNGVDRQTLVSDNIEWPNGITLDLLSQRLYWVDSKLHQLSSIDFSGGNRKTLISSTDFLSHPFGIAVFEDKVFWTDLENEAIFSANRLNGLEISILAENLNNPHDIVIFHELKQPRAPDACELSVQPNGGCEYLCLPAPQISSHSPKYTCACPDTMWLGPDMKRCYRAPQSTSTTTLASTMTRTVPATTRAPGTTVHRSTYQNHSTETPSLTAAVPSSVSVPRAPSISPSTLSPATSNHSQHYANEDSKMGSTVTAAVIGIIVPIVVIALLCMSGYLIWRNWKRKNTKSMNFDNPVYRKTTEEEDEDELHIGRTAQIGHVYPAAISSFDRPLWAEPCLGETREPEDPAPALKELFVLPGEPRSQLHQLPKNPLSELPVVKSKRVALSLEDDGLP
Kind of assay: Biolayer interferometry (BLI) binding of ApoER2 and sclerostin / sclerostin loop2. As for the experimental part:
The interaction of full‐length (FL)/truncated ApoER2 with full‐length (FL) /truncated sclerostin in macrophages (RAW264.7) were determined by pull‐down assay and Co‐IP assay. The binding affinity of ApoER2 to FL sclerostin and sclerostin loop2 were determined by biolayer interferometry (BLI) analysis. Moreover, the binding of sclerostin to ApoER2 on macrophages (RAW264.7) was examined by confocal microscopy.
Biolayer interferometry (BLI) analysis was performed on the Biomolecular Interaction Analyzer (ForteBio, Octet RED96e). To determine the binding affinity between ApoER2 and sclerostin, the ApoER2 protein (R&D, 3520‐AR) was biotinylated using 10 mM EZ‐Link Sulfo‐NHS‐LC‐LC‐Biotin (Thermo Scientific, 21 343) in a molar ratio of 1:20 for 2 h at 4 °C. The Slide‐A‐Lyzer Dialysis Cassettes (Thermo Scientific, 66 382) were used for excess biotin removal.^[ [61] ^] […] (SA) tray biosensors (Sartorius, 18‐5019) were used to load biotin‐ApoER2 proteins. Biosensors were pre‐wet for 10 min using 200 µL PBS containing 0.02% Tween 20 (v/v) in a 96‐well plate. […] Raw data were analyzed using Data Analysis Software (ForteBio, v8.1). All Kd values were calculated after deducting the non‐specific binding between the biosensors and the samples.^[ [62], [63] ^]
Background: Biolayer interferometry detects binding as a change in optical thickness at a sensor tip.

Where two headings read alike, the source gives them in different places.

The Kd is the equilibrium constant for the complex coming apart.

Consider “sclerostin: recombinant human/mouse full‐length sclerostin protein”, for which the dissociation constant (Kd) is 2.1 nM (Figure S6B, Sclerostin – ApoER2, read-out: Kd, binding of sclerostin to ApoER2) and 3.8 nM (Octet RED96e, biotin‐ApoER2 on streptavidin biosensors or His‐ApoER2 on HIS1K biosensors, non‐specific binding deducted, Figure 6B, read-out: Kd, binding of ApoER2 to sclerostin or sclerostin loop2).

For the origin of these results see article PMC12884772, “Macrophagic Sclerostin Loop2‐ApoER2 Interaction Required by Sclerostin for Cardiovascular Protective Action” (Advanced Science, 2025).
